This passage reports binding result and Kd results from patent US10618965 (dated 2020).

Test [1] concerns the target T1, mouse FcRn (mouse, UniProt Q61559).
T1 chain 1: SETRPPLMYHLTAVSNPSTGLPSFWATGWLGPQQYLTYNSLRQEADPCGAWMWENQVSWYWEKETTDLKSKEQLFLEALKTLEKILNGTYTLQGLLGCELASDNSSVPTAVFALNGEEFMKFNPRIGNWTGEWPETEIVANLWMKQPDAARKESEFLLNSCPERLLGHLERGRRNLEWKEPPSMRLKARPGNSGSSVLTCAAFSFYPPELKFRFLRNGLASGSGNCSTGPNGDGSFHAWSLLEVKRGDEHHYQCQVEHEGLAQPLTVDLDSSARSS
T1 chain 2: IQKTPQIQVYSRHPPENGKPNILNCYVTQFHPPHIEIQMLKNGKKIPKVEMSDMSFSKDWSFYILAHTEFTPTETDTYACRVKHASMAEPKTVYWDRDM
Description: SPR, pH 7.0.

Test [2] has as its target T2, human IL-6 receptor (human).
T2 chain: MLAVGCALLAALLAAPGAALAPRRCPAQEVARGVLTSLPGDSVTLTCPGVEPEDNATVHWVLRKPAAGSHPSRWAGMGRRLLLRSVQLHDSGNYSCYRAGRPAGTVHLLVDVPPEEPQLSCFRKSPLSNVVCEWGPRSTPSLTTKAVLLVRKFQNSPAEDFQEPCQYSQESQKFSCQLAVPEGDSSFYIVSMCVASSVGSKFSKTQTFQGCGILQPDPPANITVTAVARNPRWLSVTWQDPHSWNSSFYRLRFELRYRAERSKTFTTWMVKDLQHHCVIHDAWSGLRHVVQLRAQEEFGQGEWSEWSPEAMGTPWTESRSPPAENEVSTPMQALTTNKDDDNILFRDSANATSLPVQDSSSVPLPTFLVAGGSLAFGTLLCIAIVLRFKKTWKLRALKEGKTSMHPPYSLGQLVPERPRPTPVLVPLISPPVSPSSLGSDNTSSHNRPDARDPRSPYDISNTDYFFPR
Description: SPR, 3 uM CaCl2, 37C. On the technique in general: Surface plasmon resonance follows binding to a sensor surface in real time, without labels.

Test [3] concerns the target T2, human IL-6 receptor. Description: SPR, 3 uM CaCl2, 37C.
For test [4], the target named is human FcRn (with beta2-microglobulin) (human). Description: SPR, pH 7.0.
Test [5] shares this target. Description: SPR, pH 7.0. The source holds these as a separate data set.

Where two headings read alike, the source gives them in different places. Where only a bound is given, the exact number is not on record here.

Sequence of human FcRn (with beta2-microglobulin) (human) (chain, as listed by the source, chain 1 of 2): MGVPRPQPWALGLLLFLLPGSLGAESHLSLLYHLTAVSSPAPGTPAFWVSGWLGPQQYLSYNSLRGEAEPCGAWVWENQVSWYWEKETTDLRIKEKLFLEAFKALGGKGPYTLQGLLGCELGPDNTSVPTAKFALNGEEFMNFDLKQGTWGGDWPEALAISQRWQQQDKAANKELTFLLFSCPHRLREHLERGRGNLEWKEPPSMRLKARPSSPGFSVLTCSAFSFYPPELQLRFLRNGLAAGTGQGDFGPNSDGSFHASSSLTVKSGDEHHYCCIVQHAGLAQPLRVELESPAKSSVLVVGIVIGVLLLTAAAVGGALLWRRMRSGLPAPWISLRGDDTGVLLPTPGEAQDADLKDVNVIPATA
Sequence of human FcRn (with beta2-microglobulin) (human) (chain, as listed by the source, chain 2 of 2): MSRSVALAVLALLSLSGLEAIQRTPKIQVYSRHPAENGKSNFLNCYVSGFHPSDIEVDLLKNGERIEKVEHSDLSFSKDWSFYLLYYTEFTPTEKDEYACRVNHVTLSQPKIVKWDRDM

B1: mIgG1 (antibody)
chain 1: DVQLQESGPVLVKPSQSLSLTCTVTGYSITSDHAWSWIRQFPGNKLEWMGYISYSGITTYNPSLKSRISITRDTSKNQFFLQLNSVTTGDTSTYYCARSLARTTAMDYWGQGTSVTVSSAKTTPPSVYPLAPGSAAQTNSMVTLGCLVKGYFPEPVTVTWNSGSLSSGVHTFPAVLQSDLYTLSSSVTVPSSTWPSETVTCNVAHPASSTKVDKKIVPRDCGCKPCICTVPEVSSVFIFPPKPKDVLTITLTPKVTCVVVDISKDDPEVQFSWFVDDVEVHTAQTQPREEQFNSTFRSVSELPIMHQDWLNGKEFKCRVNSAAFPAPIEKTISKTKGRPKAPQVYTIPPPKEQMAKDKVSLTCMITDFFPEDITVEWQWNGQPAENYKNTQPIMDTDGSYFVYSKLNVQKSNWEAGNTFTCSVLHEGLHNHHTEKSLSHSPGK
chain 2: not shown
Take B1: the binding result in test [1] was “no binding”.

B2: 6RL#9-IgG1 (antibody, V domains shown)
VH: QVQLVQSGAEVKKPGASVKVSCKASGYTFTSYYMHWVRQAPGQGLEWMGIINPSGGSTSYAQKFQGRVTMTRDTSTSTVYMELSSLRSEDTAVYYCARDDPGGGEYYFDYWGQGTLVTVSS
VL: QSVLTQPPSVSGAPGQRVTISCTGSRSNMGAGYDVHWYQLLPGAAPKLLISHNTHRPSGVPDRFSGSKSGASASLAITGLQAEDEADYYCQSHDSSLSAVVFGGGTKLTVLS
On to B2, for which the Kd (in general, the concentration at which binding is half-saturated) in test [2] is about 31 µM; in test [3], over 31 µM.

B3: FH4-IgG1 (antibody, V domains shown)
VH: QVQLVQSGAEVKKPGSSVKVSCKASGGTFSSYAISWVRQAPGQGLEWMGGIIPIFGTANYAQKFQGRVTITADESTSTAYMELSSLRSEDTAVYYCARERDYYDSSGYYDAFDIWGQGTMVTVSS
VL: ETTVTQSPSFLSASVGDRVTITCITTTDIDDDMNWFQQEPGKAPKLLISEGNILRPGVPSRFSSSGYGTDFTLTISKLQPEDFATYYCLQSDNLPFTFGQGTKLEIKR
As for B3, the dissociation constant (Kd) in test [2] is about 34 µM; in test [3] it was over 34 µM.

B4: IgG2 (antibody)
chain 1: QVQLQESGPGLVKPSETLSLTCAVSGHSISHDHAWSWVRQPPGEGLEWIGFISYSGITNYNPSLQGRVTISRDNSKNTLYLQMNSLRAEDTAVYYCARSLARTTAMDYWGEGTLVTVSSASTKGPSVFPLAPCSRSTSESTAALGCLVKDYFPEPVTVSWNSGALTSGVHTFPAVLQSSGLYSLSSVVTVPSSNFGTQTYTCNVDHKPSNTKVDKTVERKCCVECPPCPAPPVAGPSVFLFPPKPKDTLMISRTPEVTCVVVDVSHEDPEVQFNWYVDGVEVHNAKTKPREEQFNSTFRVVSVLTVVHQDWLNGKEYKCKVSNKGLPAPIEKTISKTKGQPREPQVYTLPPSREEMTKNQVSLTCLVKGFYPSDIAVEWESNGQPENNYKTTPPMLDSDGSFFLYSKLTVDKSRWQQGNVFSCSVMHEALHNHYTQKSLSLSP
chain 2: not shown
For B4, the binding result in test [4] is recorded as “no binding”.

B5: IgG2-F939 (antibody)
chain 1: QVQLQESGPGLVKPSETLSLTCAVSGHSISHDHAWSWVRQPPGEGLEWIGFISYSGITNYNPSLQGRVTISRDNSKNTLYLQMNSLRAEDTAVYYCARSLARTTAMDYWGEGTLVTVSSASTKGPSVFPLAPCSRSTSESTAALGCLVKDYFPEPVTVSWNSGALTSGVHTFPAVLQSSGLYSLSSVVTVPSSNFGTQTYTCNVDHKPSNTKVDKTVERKCCVECPPCPAPPVRGPKVFLFPPKPKDTLYISRTPEVTCVVVDVSHEDPEVQFNWYVDGVEVHNAKTKPREEQFNSTFRVVSVLTVVHQDWLNGKEYKCKVSNKGLPAPIEKTISKTKGQPREPQVYTLPPSREEMTKNQVSLTCLVKGFYPSDIAVEWESNGQPENNYKTTPPMLDSDGSFFLYSKLTVDKSRWQQGNVFSCSVMHEALHYHVTQKSLSLSP
chain 2: not shown
In test [5], B5 showed a dissociation constant (Kd) of 0.14 µM.

B6: IgG4-F890 (antibody)
chain 1: QVQLQESGPGLVKPSETLSLTCAVSGHSISHDHAWSWVRQPPGEGLEWIGFISYSGITNYNPSLQGRVTISRDNSKNTLYLQMNSLRAEDTAVYYCARSLARTTAMDYWGEGTLVTVSSASTKGPSVFPLAPCSRSTSESTAALGCLVKDYFPEPVTVSWNSGALTSGVHTFPAVLQSSGLYSLSSVVTVPSSSLGTKTYTCNVDHKPSNTKVDKRVESKYGPPCPPCPAPEFLGGPSVFLFPPKPKDTLYISRTPEVTCVVVDVSQEDPEVQFNWYVDGVEVHNAKTKPREEQFNSTYRVVSVLTVLHQDWLNGKEYKCKVSNKGLPSSIEKTISKAKGQPREPQVYTLPPSQEEMTKNQVSLTCLVKGFYPSDIAVEWESNGQPENNYKTTPPVLDSDGSFFLYSRLTVDKSRWQEGNVFSCSVMHEALHYHVTQKSLSLSL
chain 2: not shown
Turning to B6, the affinity in test [5], expressed as Kd, was 0.14 µM.
